From patent US8293494 (UNIVERSITATSKLINIKUM FREIBURG, dated 2012)
Values belong to the binder of their own block, whether it stands above or below them.

Columns and labels:
[1] = molecular target: TAP-LSD1 (UniProt O60341 1-852); assay: TAP-LSD1 complexes immobilised on IgG sepharose, Western blot
Description: Protein complexes were immobilised on IgG, sepharose, released from IgG sepharose by TEV protease cleavage of the TAP tag, followed by immunoprecipitation of Flag-tagged AR with α-Flag antibody. […] Ten percent of the extract used for immunoprecipitation was loaded as input.
LSD1 associated complexes were released from IgG sepharose by TEV protease cleavage of the TAP-tag followed by immunoprecipitation of Flag-tagged AR with α-Flag antibody. […] We applied the TAP-based co-purification strategy because the moderate expression levels of the endogenous proteins would only have allowed a limited number of purification steps.

[2] = molecular target: LSD1 (endogenous, LNCaP cells) (human, UniProt O60341 1-852); assay: Re-ChIP in LNCaP cells
Description: LNCaP cells were incubated with or without the AR agonist R1881 (a, b), and transfected with stealth RNAi (b). ChIP or Re-ChIP was performed with the indicated antibodies. The precipitated chromatin was amplified by PCR using primers flanking the promoter region (ARE I+II) and the enhancer region (ARE III) of the PSA gene, the promoter region (ARE) of the KLK2 gene, or the promoters of the unrelated GAPDH and U6 genes. […] Western blots were decorated with the indicated antibodies against α-mono-, α-di-, or α-trimethyl H3K9.
ChIP experiments were performed as described[3]. LNCaP cells were treated for 45 min (FIG. 2a) or 210 min in the presence or absence of 10^-8 M R1881 as indicated. LNCaP cells were transfected three days before harvesting for ChIP with or without stealth RNAi (Invitrogen) following the manufacturer's instructions. […] For PCR, 1-5 µl out of 50 d DNA extract was used. For Re-ChIP assays, immunoprecipitations were sequentially washed with TSE I, TSE II, buffer III, and TE[20]. Complexes were eluted by incubation with 10 mM DTT at 37° C. for 30 minutes, diluted 50 times with dilution buffer[20] followed by a second immunoprecipitation with the indicated antibodies.

[3] = molecular target: T1, GFP-JHDM2A (UniProt Q9Y4C1 1-1321); assay: co-immunoprecipitation with α-Flag from transfected 293 cells, Western blot with α-GFP
T1 construct: not shown: GFP fusion partner
T1 sequence (looked up): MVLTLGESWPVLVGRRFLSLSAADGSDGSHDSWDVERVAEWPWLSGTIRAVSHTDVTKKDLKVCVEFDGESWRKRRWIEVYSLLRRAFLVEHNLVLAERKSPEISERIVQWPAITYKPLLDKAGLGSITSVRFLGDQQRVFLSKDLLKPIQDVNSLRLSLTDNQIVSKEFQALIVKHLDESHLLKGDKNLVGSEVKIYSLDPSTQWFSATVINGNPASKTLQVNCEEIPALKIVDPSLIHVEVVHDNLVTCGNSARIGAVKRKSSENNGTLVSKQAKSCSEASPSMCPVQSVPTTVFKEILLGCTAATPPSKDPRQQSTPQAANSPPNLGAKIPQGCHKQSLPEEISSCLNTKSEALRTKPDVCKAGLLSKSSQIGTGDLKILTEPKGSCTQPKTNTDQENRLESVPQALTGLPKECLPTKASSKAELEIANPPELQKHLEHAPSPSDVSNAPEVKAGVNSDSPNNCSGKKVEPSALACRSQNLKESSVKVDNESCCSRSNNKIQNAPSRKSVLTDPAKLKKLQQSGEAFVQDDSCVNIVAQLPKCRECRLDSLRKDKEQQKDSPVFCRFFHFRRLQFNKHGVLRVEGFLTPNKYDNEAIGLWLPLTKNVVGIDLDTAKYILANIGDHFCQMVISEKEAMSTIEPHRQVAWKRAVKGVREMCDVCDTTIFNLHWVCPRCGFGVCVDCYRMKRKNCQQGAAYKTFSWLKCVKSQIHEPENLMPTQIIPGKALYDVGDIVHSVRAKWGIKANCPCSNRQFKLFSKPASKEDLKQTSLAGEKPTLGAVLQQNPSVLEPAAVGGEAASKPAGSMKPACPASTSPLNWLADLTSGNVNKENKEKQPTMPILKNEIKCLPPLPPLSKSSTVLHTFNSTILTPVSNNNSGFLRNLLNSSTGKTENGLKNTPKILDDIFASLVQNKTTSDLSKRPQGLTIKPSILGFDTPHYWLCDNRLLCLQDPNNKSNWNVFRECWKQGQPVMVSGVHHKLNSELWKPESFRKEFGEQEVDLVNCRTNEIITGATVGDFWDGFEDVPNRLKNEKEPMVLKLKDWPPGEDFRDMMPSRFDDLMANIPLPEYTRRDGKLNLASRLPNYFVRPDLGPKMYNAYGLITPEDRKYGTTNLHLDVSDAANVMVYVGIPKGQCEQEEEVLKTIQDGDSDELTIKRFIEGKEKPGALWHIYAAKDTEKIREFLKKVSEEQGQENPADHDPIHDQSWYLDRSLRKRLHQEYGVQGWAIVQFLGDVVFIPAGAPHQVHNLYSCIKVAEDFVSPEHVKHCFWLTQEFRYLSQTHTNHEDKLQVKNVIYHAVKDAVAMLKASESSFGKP
Description: Extracts were immunoprecipitated with α-Flag antibody. Twenty percent of the extract used for immunoprecipitation was loaded as input. Western blots were decorated with α-GFP (Santa Cruz; 1:500) or α-Flag antibody (1:2500).

binding result [1]: binds
B1: V5-JMJD2C (enzyme)
chain: MEVAEVESPLNPSCKIMTFRPSMEEFREFNKYLAYMESKGAHRAGLAKVIPPKEWKPRQCYDDIDNLLIPAPIQQMVTGQSGLFTQYNIQKKAMTVKEFRQLANSGKYCTPRYLDYEDLERKYWKNLTFVAPIYGADINGSIYDEGVDEWNIARLNTVLDVVEEECGISIEGVNTPYLYFGMWKTTFAWHTEDMDLYSINYLHFGEPKSWYAIPPEHGKRLERLAQGFFPSSSQGCDAFLRHKMTLISPSVLKKYGIPFDKITQEAGEFMITFPYGYHAGFNHGFNCAESTNFATVRWIDYGKVAKLCTCRKDMVKISMDIFVRKFQPDRYQLWKQGKDIYTIDHTKPTPASTPEVKAWLQRRRKVRKASRSFQCARSTSKRPKADEEEEVSDEVDGAEVPNPDSVTDDLKVSEKSEAAVKLRNTEASSEEESSASRMQVEQNLSDHIKLSGNSCLSTSVTEDIKTEDDKAYAYRSVPSISSEADDSIPLSSGYEKPEKSDPSELSWPKSPESCSSVAESNGVLTEGEESDVESHGNGLEPGEIPAVPSGERNSFKVPSIAEGENKTSKSWRHPLSRPPARSPMTLVKQQAPSDEELPEVLSIEEEVEETESWAKPLIHLWQTKSPNFAAEQEYNATVARMKPHCAICTLLMPYHKPDSSNEENDARWETKLDEVVTSEGKTKPLIPEMCFIYSEENIEYSPPNAFLEEDGTSLLISCAKCCVRVHASCYGIPSHEICDGWLCARCKRNAWTAECCLCNLRGGALKQTKNNKWAHVMCAVAVPEVRFTNVPERTQIDVGRIPLQRLKLKCIFCRHRVKRVSGACIQCSYGRCPASFHVTCAHAAGVLMEPDDWPYVVNITCFRHKVNPNVKSKACEKVISVGQTVITKHRNTRYYSCRVMAVTSQTFYEVMFDDGSFSRDTFPEDIVSRDCLKLGPPAEGEVVQVKWPDGKLYGAKYFGSNIAHMYQVEFEDGSQIAMKREDIYTLDEELPKRVKARFSTASDMRFEDTFYGADIIQGERKRQRVLSSRFKNEYVADPVYRTFLKSSFQKKCQKRQ
notes: also called CMX-DEST51-JMJD2C; not shown: V5 tag

binding result [2]: binds
B2: JMJD2C (endogenous, LNCaP cells) (enzyme)
chain: B1 chain
notes: Endogenous protein, on chromatin (ChIP / Re-ChIP)

binding result [3]: no binding
B3: Flag-JMJD2C (enzyme, human, UniProt Q9H3R0 1-1056, looked up)
chain: B1 chain
notes: also called CMX-Flag-JMJD2C; not shown: Flag tag

binding result [1]: binds
B4: Flag-AR (receptor)
chain: MEVQLGLGRVYPRPPSKTYRGAFQNLFQSVREVIQNPGPRHPEAASAAPPGASLLLLQQQQQQQQQQQQQQQQQQQQQQQETSPRQQQQQQGEDGSPQAHRRGPTGYLVLDEEQQPSQPQSALECHPERGCVPEPGAAVAASKGLPQQLPAPPDEDDSAAPSTLSLLGPTFPGLSSCSADLKDILSEASTMQLLQQQQQEAVSEGSSSGRAREASGAPTSSKDNYLGGTSTISDNAKELCKAVSVSMGLGVEALEHLSPGEQLRGDCMYAPLLGVPPAVRPTPCAPLAECKGSLLDDSAGKSTEDTAEYSPFKGGYTKGLEGESLGCSGSAAAGSSGTLELPSTLSLYKSGALDEAAAYQSRDYYNFPLALAGPPPPPPPPHPHARIKLENPLDYGSAWAAAAAQCRYGDLASLHGAGAAGPGSGSPSAAASSSWHTLFTAEEGQLYGPCGGGGGGGGGGGGGGGGGGGGGGGEAGAVAPYGYTRPPQGLAGQESDFTAPDVWYPGGMVSRVPYPSPTCVKSEMGPWMDSYSGPYGDMRLETARDHVLPIDYYFPPQKTCLICGDEASGCHYGALTCGSCKVFFKRAAEGKQKYLCASRNDCTIDKFRRKNCPSCRLRKCYEAGMTLGARKLKKLGNLKLQEEGEASSTTSPTEETTQKLTVSHIEGYECQPIFLNVLEAIEPGVVCAGHDNNQPDSFAALLSSLNELGERQLVHVVKWAKALPGFRNLHVDDQMAVIQYSWMGLMVFAMGWRSFTNVNSRMLYFAPDLVFNEYRMHKSRMYSQCVRMRHLSQEFGWLQITPQEFLCMKALLLFSIIPVDGLKNQKFFDELRMNYIKELDRIIACKRKNPTSCSRRFYQLTKLLDSVQPIARELHQFTFDLLIKSHMVSVDFPEMMAEIISVQVPKILSGKVKPIYFHTQ
notes: Plasmid described previously; Assays in the presence of R1881; also called Flag-tagged AR; not shown: Flag tag
